Assays:
Assay in all cases: peptide microarray
Peptide_077 = target: T1, Peptide_077
T1 peptide: GGQVEVKSEKLDFKD

Peptide_095 = target: T2, Peptide_095
T2 peptide: RHLSNVSSTGSIDMV

Peptide_090 = target: T3, Peptide_090
T3 peptide: TDHGAEIVYKSPVVS

Peptide_096 = target: T4, Peptide_096
T4 peptide: NVSSTGSIDMVDSPQ

Peptide_078 = target: T5, Peptide_078
T5 peptide: EVKSEKLDFKDRVQS

Peptide_100 = target: T6, Peptide_100
T6 peptide: ATLADEVSASLAKQG

Peptide_094 = target: T7, Peptide_094
T7 peptide: DTSPRHLSNVSSTGS

Peptide_084 = target: T8, Peptide_084
T8 peptide: HVPGGGNKKIETHKL

Peptide_086 = target: T9, Peptide_086
T9 peptide: KIETHKLTFRENAKA

Peptide_082 = target: T10, Peptide_082
T10 peptide: IGSLDNITHVPGGGN

Peptide_088 = target: T11, Peptide_088
T11 peptide: FRENAKAKTDHGAEI

Peptide_075 = target: T12, Peptide_075
T12 peptide: GNIHHKPGGGQVEVK

Peptide_076 = target: T13, Peptide_076
T13 peptide: HKPGGGQVEVKSEKL

Peptide_087 = target: T14, Peptide_087
T14 peptide: HKLTFRENAKAKTDH

Peptide_092 = target: T15, Peptide_092
T15 peptide: YKSPVVSGDTSPRHL

Peptide_101 = target: T16, Peptide_101
T16 peptide: TLADEVSASLAKQGL

Peptide_052 = target: T17, Peptide_052
T17 peptide: KSPSSAKSRLQTAPV

Peptide_056 = target: T18, Peptide_056
T18 peptide: MPDLKNVKSKIGSTE

Peptide_062 = target: T19, Peptide_062
T19 peptide: KVQIINKKLDLSNVQ

Peptide_070 = target: T20, Peptide_070
T20 peptide: VQIVYKPVDLSKVTS

Peptide_041 = target: T21, Peptide_041
T21 peptide: KSGDRSGYSSPGSPG

Peptide_046 = target: Peptide_046
Peptide_038 = target: T22, Peptide_038
T22 peptide: APKTPPSSGEPPKSG

Peptide_043 = target: T23, Peptide_043
T23 peptide: SSPGSPGTPGSRSRT

Peptide_068 = target: T24, Peptide_068
T24 peptide: KHVPGGGSVQIVYKP

Peptide_072 = target: T25, Peptide_072
T25 peptide: DLSKVTSKCGSLGNI

Peptide_066 = target: T26, Peptide_066
T26 peptide: KCGSKDNIKHVPGGG

Peptide_058 = target: T27, Peptide_058
T27 peptide: SKIGSTENLKHQPGG

Peptide_064 = target: T28, Peptide_064
T28 peptide: LDLSNVQSKCGSKDN

Peptide_042 = target: T29, Peptide_042
T29 peptide: RSGYSSPGSPGTPGS

Peptide_039 = target: T30, Peptide_039
T30 peptide: PPSSGEPPKSGDRSG

Peptide_063 = target: T31, Peptide_063
T31 peptide: INKKLDLSNVQSKCG

Peptide_057 = target: T32, Peptide_057
T32 peptide: KNVKSKIGSTENLKH

Peptide_067 = target: T33, Peptide_067
T33 peptide: KDNIKHVPGGGSVQI

Peptide_065 = target: T34, Peptide_065
T34 peptide: NVQSKCGSKDNIKHV

Peptide_053 = target: T35, Peptide_053
T35 peptide: SAKSRLQTAPVPMPD

Peptide_069 = target: T36, Peptide_069
T36 peptide: GGGSVQIVYKPVDLS

Peptide_071 = target: T37, Peptide_071
T37 peptide: YKPVDLSKVTSKCGS

Peptide_044 = target: T38, Peptide_044
T38 peptide: SPGTPGSRSRTPSLP

Peptide_073 = target: T39, Peptide_073
T39 peptide: VTSKCGSLGNIHHKP

Peptide_054 = target: T40, Peptide_054
T40 peptide: RLQTAPVPMPDLKNV

Peptide_040 = target: T41, Peptide_040
T41 peptide: GEPPKSGDRSGYSSP

Peptide_074 = target: T42, Peptide_074
T42 peptide: CGSLGNIHHKPGGGQ

Peptide_037 = target: T43, Peptide_037
T43 peptide: KTPPAPKTPPSSGEP

Peptide_049 = target: T44, Peptide_049
T44 peptide: EPKKVAVVRTPPKSP

Peptide_055 = target: T45, Peptide_055
T45 peptide: APVPMPDLKNVKSKI

Peptide_045 = target: T46, Peptide_045
T46 peptide: PGSRSRTPSLPTPPT

Measured: binding result

B1: mAb TRC35 (antibody, V domains shown)
VH: QVQLQQPGTELVKPGASVKLSCKASGYTFTSYWLQWVKQRPGQGLEWIGEIDPSDSYTNYNQKFKGKATLTVDTSSSTAYMQLSSLTSEDSAVYYCATLTGSWGQGTTLAVSS
VL: DVLLTQTPLSLPVSLGDQASISCRASQSIVDSNGNTFLEWYLQKSGQSPKVLIYKVSNRFSGVPDRFSGRGSGTDFTLKISRVEAEDLGVYYCFQGSHVPYTFGGGTKLEIK
notes: Mouse hybridoma monoclonal antibody raised in tau knockout mice against tau/poly(A) RNA complexes; IgG1 isotype, kappa light chain; also called TRC35 monoclonal antibody; hybridoma clone #35
no binding (tested: 1 ug/ml): Peptide_077 | Peptide_095 | Peptide_090 | Peptide_096 | Peptide_078 | Peptide_100 | Peptide_094 | Peptide_084 | Peptide_086 | Peptide_082 | Peptide_088 | Peptide_075 | Peptide_076 | Peptide_087 | Peptide_092 | Peptide_101 | Peptide_052 | Peptide_056 | Peptide_062 | Peptide_070 | Peptide_041 | Peptide_046 | Peptide_038 | Peptide_043 | Peptide_068 | Peptide_072 | Peptide_066 | Peptide_058 | Peptide_064 | Peptide_042 | Peptide_039 | Peptide_063 | Peptide_057 | Peptide_067 | Peptide_065 | Peptide_053 | Peptide_069 | Peptide_071 | Peptide_044 | Peptide_073 | Peptide_054 | Peptide_040 | Peptide_074 | Peptide_037 | Peptide_049 | Peptide_055 | Peptide_045

— patent publication US20240352102A1 (UNITED STATES GOVERNMENT AS REPRESENTED BY THE DEPARTMENT …, published 2024)
